Test results taken from the nanobody polyreactivity screen of Harvey et al. (2022).

Assay: yeast display, Sf9 membrane polyspecificity reagent, FACS + sequencing; frameworks hold sequencing errors
Summary of the method: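 A synthetic nanobody library was expressed on Saccharomyces cerevisiae BJ5465 by galactose induction for 36–48 hours. The library was stained for 1 hour at 4 °C with 10% biotinylated, detergent-solubilized Sf9 membrane reagent and enriched with streptavidin microbeads before FACS. Low and high (top ~1%) gates were set on anti-HA fluorescence for expression and streptavidin fluorescence for reagent binding, and each polyreactivity label reflects the gate of origin.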

Sequence | polyreactivity (PSR sort gate)
QVQLVESGGGLVQAGGSLRLSCAASGGIFVGYAMGWYRQAPGKERELVASIDGSDGSTFYADSVKGRFTISRDNAKNTVYLQMNSLKPVDTAVYYCNARATLLSPANTIRGYDYWGQGTQVTVSS | low polyreactivity
QVQLVESGGGLVQAGGSLRLSCAASGGIFVLYAMGWYRQAPGKERELVAAIRYGGSSTYYADSVKGRFTISRDYAKNTVYLQMNSLKPEDTAVYYCAAEPYSWDTWVDYDYWGQGTQVTVSS | low polyreactivity
QVQLVESGGGLVQAGGSLRLSCAASGGIFVQNAMGWYRQAPGKERELVAAITNGGSTYYADSVKGRFTISRDNAKNTVYLQMNSLKPEDTAVYYCAVDEYFIQDMDYWGQGTQVTVSS | low polyreactivity
QVQLVESGGGLVQAGGSLRLSCAASGGIFVRYAMGWYRQAPGKERELVAAISYSGGSTYYADSVKGRFTISRDNAKNTVYLQLNSLKPEDTAVYYCAAYVTGRYDWGQVTQVTVSS | high polyreactivity
QVQLVESGGGLVQAGGSLRLSCAASGGIFVTYAMGWYRKAPGKERELLAAISANGGDTYYADSVKGRFTISRDNAKTSVYLQMNRLKPEDTAVYYCAADGFLPILHPVPWSYYYPFGYWGQGTHVTVSS | low polyreactivity
QVQLVESGGGLVQAGGSLRLSCAASGGIFVTYAMGWYRQAPGKERELVAAITSGGTTYYADSVKGRFTISRDNAKNTVYLQMNSLKPEDTAVYYCAADPTNSYLEYDYWGQGTQVTVSS | low polyreactivity
QVQLVESGGGLVQAGGSLRLSCAASGGIFWAYAMGWYRQAPGKERELVAAITTRGTSTYYADSVKGRFTISCDNAKNTVYLQMNSLKPEDTAVYYCAAALYGYYSTLTTYWGQGTQVTVSS | high polyreactivity
QVQLVESGGGLVQAGGSLRLSCAASGGIFWVYAMGWYRQAPGKERELVAAISNSDTSTSYADSVKGRFTISRDNAKNTVYLQMNSLKPEDTAVYYCNADSPSLSGDYWGQGTQVTVSS | low polyreactivity
QVQLVESGGGLVQAGGSLRLSCAASGGIFWYYTMGWYRQAPGKERELVATLSSGGRTYYADSVKGRFTMSRDNAKNTVYLQMNSLKPEDTAVYYCAAVGWYHDYYWGQGTQVTVSS | high polyreactivity
QVQLVESGGGLVQAGGSLRLSCAASGGIFWYYTRVWYRQAPGKERELVATISSGGRTYYADSVKGRFTISRDNAKNTVYLQMNSLKPEHTAVYYCAAVGWYHDYYWGQGTQVTVSS | high polyreactivity
QVQLVESGGGLVQAGGSLRLSCAASGGIFYFNAMGWYRQAPGKERELVASITWSGGNTYYADSVKGRFTISRDNAKNTVYLQMNSLKPEDTAVYYCAADTQEYRPTYDYWGQGTQVTVSS | low polyreactivity
QVQLVESGGGLVQAGGSLRLSCAASGGIFYFYAMGWYRQAPGKERELVAVITWSGGRTRYADSVKGRFTISRDNAKNTVYLQMNSLKPEDTAVYYCATYGVNPPGVEEYNYWGQGTQVTVSS | high polyreactivity
QVQLVESGGGLVQAGGSLRLSCAASGGIFYIYAMGWYRQAPGQERELVAAISWRGTSTYYADSVKGRFTISRDNAKNTVYLQMNRLKPEDTAVYYCAADFSYTSYATRYQGDYWGQGTQVTVSS | low polyreactivity
QVQLVESGGGLVQAGGSLRLSCAASGGIFYLYAMGWYRQAPGKERELVAAISWSGTSTYYADSVKGRFTISRDNAKNTVYLQMNSLKPEDTAVYYCAADYERYYAKAINYDYWGQGTQVTVSS | low polyreactivity
QVQLVESGGGLVQAGGSLRLSCAASGGIFYPYAMGGYRQAPGKERELVASIDVSDGSTYYADSVKGRFTISRDNAKNTVYLQMNSLKPEDTAVYYCAADRYYKAIDFEGDYWGQGTQVTVSS | low polyreactivity
QVQLVESGGGLVQAGGSLRLSCAASGGIFYRYAMGWYRQAPGKERELVAAITRSGANTYYADSVKGRFTISRDNAKNTVYLLMNSLKPEDTAVYYCNARSYLYYSGQYDYWGQGTQVTVSS | high polyreactivity
QVQLVESGGGLVQAGGSLRLSCAASGGIFYRYAMGWYRQAPGKERELVAAITSSGGSTYYADSVKGRFTISRDNAKNTVYLQMNSLKPEDTAVYYCAADYGYYGAGSYFDRGDYWGQGTQVTVSS | high polyreactivity
QVQLVESGGGLVQAGGSLRLSCAASGGIFYRYVMRWYRQAPGKERELVAAITFSGGSTYYSDSVKGRFTISRDNAKNTVYLQMNSLKPEDTAVYYCAADTYYNPYWLDYWGQGTQVTVSS | low polyreactivity
QVQLVESGGGLVQAGGSLRLSCAASGGIFYSYAMGWYRQAPGKERELVAAISGRGGSTYYADSVKGRFTISRDNAKNSVNLQMNSLKPEDTAVYYCNALGSQRYDYWGQGTQVTVSS | high polyreactivity
QVQLVESGGGLVQAGGSLRLSCAASGGIFYSYAMGWYRQAPGKERELVAALSRGSRTYYADSVKGRFTISRDNAKNTVYLQMNSLKPEDTAVYYCAAYIVGSYRDGYWGQGTQVSVSS | high polyreactivity

Sequence | polyreactivity (PSR sort gate)
QVQLVESGGGLVQAGGSLRLSCAASGGIFYTYALGWYRQAPGKERELVAGINWSGSSTYYADSVKGRFTISRDNAKNTVYLQMNSLKPEDTAVYYCAARSYSYSTGDYWGQGTQVTVSS | low polyreactivity
QVQLVESGGGLVQAGGSLRLSCAASGGIFYTYAMGWYRQAPGKERELVAAISSSGGSTYYADSVKGRFTISRDNAKNTVYLQMNSLKPEDTAVYYCAKDSSTGAGARRRYGYWGQGTQVTVSS | low polyreactivity
QVQLVESGGGLVQAGGSLRLSCAASGGIFYVNAMGWYRQAPGKERELVAAITSDGVSTYYADSVKGRFTISRDNAKNTVYLQMNSLKPEDTAVYYCAARFQYYRKYDYWGQGTQVTVSS | low polyreactivity
QVQLVESGGGLVQAGGSLRLSCAASGGIFYYYAMGWYRQAPGKERELVAAISWSGGSTYYADSVKGRFTISRDNAKNTVYLQMNSLKPDDTAVYYCATYSDFHYAQLEYDYWGQGTQVTVSS | low polyreactivity
QVQLVESGGGLVQAGGSLRLSCAASGGIIGHYDMGWYRQAPGKERELVAAIIGGGSTNYADSVKGRFTISRDNAKNTVYLQMNSLKPEDTAVYYCNVAHGTQGWWGRNDYWGQGTQVTVSS | low polyreactivity
QVQLVESGGGLVQAGGSLRLSCAASGGIIQNYVMGWYRQAPGKEREFVATISQRGGITYYADSVKGRFTISRDNAKNTVYLQMNSLKPEDTAVYYCAARSYYAVYYWGQGTQVTVSS | high polyreactivity
QVQLVESGGGLVQAGGSLRLSCAASGGILDTYALGWYRQAPGKERELVAAITSGGNTNYADSVKGRFTISRDNAKNTVYLQMNSLKPEDTAVYYCAALYTVSYLTSPVSYRYDYWGQGSQVTVSS | low polyreactivity
QVQLVESGGGLVQAGGSLRLSCAASGGINGTYTMGWYRQAPGKEREMGAAISKRGGNTYYADSVKGRFTISRDNAKNTVYLQMNSLKPEDTAVYYCAKRVSGSPPTAGSLSDSWGQGTQVTVSS | high polyreactivity
QVQLVESGGGLVQAGGSLRLSCAASGGISDVYAMGWYRQAPGKERELVAAINWSGGSTYYADSVKGRFTISRDNAKNTVYLQMNSLKPEDTAVYYCAADPGIIGTFDWYDYWGQGTQVTVSS | low polyreactivity
QVQLVESGGGLVQAGGSLRLSCAASGGISSSNAMGWYRPAPGKERELVAGINSRGGSTYADSVKGRFTISRDNAKHTVYLQMNSLKPEDTAVYYCAAAPTFKWRRNNYDYWGQGTQVTVSS | high polyreactivity
QVQLVESGGGLVQAGGSLRLSCAASGGIYGNYAMGWYRQAPGKERELVADITTGGSTYYADSVKGRFTISRDNAKNTVYLQMNSLKPEDTAVYYCNARSLFHRFSSYKYDYWGQGTQVTVST | high polyreactivity
QVQLVESGGGLVQAGGSLRLSCAASGGIYYRYAKGWYRQAPGKERDLVAVISRSGSTYYADSVKGRFTMSRDNAQNTVYLQMNSLKPEDTAVYYCAAYSRCRYGLVPYDYWGQGTQVTVSS | high polyreactivity
QVQLVESGGGLVQAGGSLRLSCAASGGNFTYNAMGWYRQAPGKERELVASISRGGGSTYYADSVKGRFTISRDNAKNTVYLQMNSLKPEDTAVYYCAASFIVGYYGYDYWGQGTQVTVSS | low polyreactivity
QVQLVESGGGLVQAGGSLRLSCAASGGPFYTYTMGWYRQAPGKERELVAAISFSDASTYYADSVKGRFTISRDNAKNTVFLQMNSLKPEDTGVYYCNAGVLQWVYYPFDYWGQGTQVTVSS | low polyreactivity
QVQLVESGGGLVQAGGSLRLSCAASGGSFGMNAMGWYRKAPGKERELVASINANGGSTYYADSVKGRFTISRDNAKNTVYLQMNSLKPEDTAVYYCAVVVTRYNHNEYNSWGQGTQVTVSS | low polyreactivity
QVQLVESGGGLVQAGGSLRLSCAASGGTFAFNAMGWYRQAPGKERELVATIRYSGGSTYADSVKGRFTISRDNAKNTVYLQMNSLKPEDTAVYYCAASGYYIFSWRYDYWGQGTQVTVSS | low polyreactivity
QVQLVESGGGLVQAGGSLRLSCAASGGTFARNAMGWYRQAPGKERELVATITRRAGNTYYADSVKGRFTISRDNAKNTVYLEMNSLKREDTAVYYCAGVATWGFYPYLIPEVGNDYWGQGTQVTVSS | high polyreactivity
QVQLVESGGGLVQAGGSLRLSCAASGGTFARYAMGWYRQAPGKERELVAAITRSGGTTYYADSVKGRFTISRDNAKNTVYLQMNSLKPEDTAVYYCAALPIVDYYGYGYWGQGTQVNVSS | high polyreactivity
QVQLVESGGGLVQAGGSLRLSCAASGGTFAVNVMGWYRQAPGKERELVAAITSNGGSTYYADSVKGRFTISRDNAKNTVYLQMNSLTPEATAVYYCAAEGSGWYTGHYYYWGQGTQVTVSS | low polyreactivity
QVQLVESGGGLVQAGGSLRLSCAASGGTFAYYAMGWSRQAPGKERELVAAISSGGSTNYADSVKGRFTISRDNAKNTVNLQMNSLKPEDTAGYFCAADYYGPFYGYTYDYWGQGTQVTVSS | low polyreactivity
